A short description of the series: label from the status in PepcDB records.

Regarding “MVRSCAPHKRKAGRRARLAFGALASHGARENTEVPMRYVLILLLALFGYLLFWPIPVAPVAYHPPETPGFTGDFAENRVLDRAEFVTLPDGEIGPEDLAVMPDGTVYTTSLAGNLYRIDGAVPQLVDRLGGRPLGLKAGPDGALYIADSFRGILRWTAPGEVETVVDQIDGAPVIYANQLDLGRDGTIYFSNSTDRFDPRTLGGTKPTSVMTVWEQSDTGYVARRTPDGRVEKIATGFVYTNGVALSPDEDFLLINETGRARVHRLWLTGDKAGQSEVFLDNLPGYPDNIEAQGDGTYWLAFASPRVPAEALMPYPFLRKVVWRLGPKVRPAPIHRGMLIQFDGTGRILRTVQDPDGRLGITTGGKQVGARFYVMTLDSPGFARMDSADLR”, the protein production entry is “failed”.
With “MVRTRLFGTFPHLSRSAQAQRNMTTTYANADPGELEKFSELAHRWWDPNSEFKPLHEINPLRLDWIQSTAPLAGKRVVDVGCGGGILSESMARAGANVKGIDLSRKALRVADLHSLEAGVAVDYEEIAAEALAAREPGSFDVVTCMEMLEHVPDPASVVRACATLVKPGGHVFFSTIHRNAKAYLLAVIGAEYVLNMLPRGTHDYAKFIRPSELAGFARTAGLEPAQLRGLEYNPLTGRYALTHDTSVNYLIATRRPDAP” the entry was “failed”.
With “MVRVDQNLFNEVMYLLDELSQDITVPKNVRKVAQDSKAKLSQENESLDLRCATVLSMLDEMANDPNVPAHGRTDLYTIISKLEALS” the entry was “not failed”; with “MVSDAALHGKLAVEHASDHLVVLAQADSGPITVDQFKEKLKEVQQEEQLGWLTAIGKYFIGIFQKGGEVFAGFVTGIIPTLVVLMTAFYAVTELVGEERVHGLARGAGRIALTRYTLLPLLAVFFLTNPMAYTFGSFLEEKHKPAFYDAAVSYVHPPLGLFPHINPGEYFVWGGILVALLELEKKGVVVAGYHVKVAIWYAIVGLVVILLKGMLTERITTIMARRQGVEL”, “failed”; with “MVSEMLSEAGHSVSYLKGGMKAWSEHLEPVKVGDLKDGGEMYQFVRIGKGCLSYMVISNGEAAIIDATRMVNFFIDFAKGKGATITHVFDTHLHADHISGGRVIAEKTKATYWLPPKDAEEVEFDYQPLEEGNDIIIGNTTIKIQPIYSPGHTIGSTSFIVDDQYLLSGDILFIDSIGRPDLAGMAEDWVGDLRKTLYSRYKALSKDLIVLPAHFMIIDELNENGSVGKQLSTLFSENHGLNIADETEFRHLVTDHLPPQPNAYQEIRETNMGKISPDEEKQREMEIGPNRCAIRLEHHHHHH”, “failed”.
As for “MVSFDHATLGYITFVLMNFSMLSGAFIFLSKKKQHWIKVHLLVSILTYIFMVWTIWVVR”, the entry is “failed”; as for “MVSLLLISLLYLGIMLIAAKISEEIFRRIGLVTFVGPILMGILLGNGVFGVIQINEIISFITSLGIVFLLFLAGAEEFNVENRPNANVFLAVILESIIPFSVILVAIYIIGFKNYLILIVPLAMSSAGPLSRMLMDVKISDNRISNLIFQQVILIEIIFVILFAILLKTSEILITIIEIFLVFAFTIMFGRTLAKILEKIEYYFKAREIEFASLIAIILIIGYLAELYKFNSAISAFFLGILLKDYLKDRPELLERLHAFTYGFFEPLFFLGIGLYVTKINASIILFSLLFFSLIIASKFLAGFISSKILNIKGKINGFATSVKGGVDSSLLLTGLTLGYINEFMYSFSILAISLSALIVPLLFQINFKISNKISESKKVKLSQEVIKLQIKPLYASCEENLRSVISKISERGVRGIVVVNYENKPLGYVSIQTLLEIDPELYESTKACEVPLDEVPIEYDNVKVIDLLRKFRETEKPVIAIINKEGVLVTTVYERELARFLISF”, “failed”; as for “MVSSLSVYYRKLAYHVIESDGFLWVGFKPGMVHFIAKEVWNIRPLTRTDVERYYEEFTVLTQGKGSLYFRIVAHGGFLKEALAYELHGLTVSDDNYLRSLNSGRHVELYPHNEKAYRAIIKGFEQHRIGTVVQATGTGKSYLLARYISDHATERICVFAPNVTILEEIKKAVGFTSPYICYRTFQSLIYYRKNDKQLKADHILIDEFHHFGAEIWGAALQEVIESNPQAYILGTSATPIRPEGMIDTVDLYFEGNLFYELTLPQAWYYRILPVPILVQSAYGLDGELNRLQKRLDRSGCSIRRKEQVQKKLDVARVDFKGALGAPEVIRKFLPKDVCKLLVFCRDLTDLKQMVPEVCGWLTQAGRVIIPFEIHHTQSERINNQILKAFQKESGKLHVLFSVNMLIEGLHVEGIDAVLFLRRTESYIVTLQQLGRCLDAGSGKQPVVLDFVNNLSGKSVYDMMALHMERLACQPSPKGFEGVTSFLTTGFLSDIRLRIEEILTELEPWQIMYERLIEFRKKENDWPSVTEGKLGLWCNTQRMAYKRGRLSEERYKLLESVGFEWNLLDSNWMKEFQSLKVFFATQGRWPKREDGALATWCYTQRERRKKGRLSKERIRVLDEIGFVWSQDLNGEWMKNYEALKIFLDKQQRFPKSAEGYLGEWCSTQRKMRKQGKLSPDRQTLLDRIGFVWSVEQVWRSHLEQLHQFHVQNGRWPGCREGALGRWCTVQRRNYRRGSLSDQKIVQLEQIGFIPLKGDE”, “failed”.
Consider “MVSSSLSLTTLAGGTLLLKGSPSTLFYKHGRTLFIVDPGHGRKRAKQISKAAEKLGGEAVAIITHFHSDHLSTLYQGFQPSTALAPVKDLAMVQDRVMRLHYTFGYPFTGAEDYLLFKAEDVDNVEPLEAERIKPLRLVPLPGHTPGQTGVETPDGVLYAADSIFGERVLQTYAVPYHSNPCQALETLTRLRDRVNRLEVIVPSHGKPVKGEEAERLLEMNIERLEDAWTALTEELSRAPASVGLLASTLMKRYGAEATPTLAILVETAVRGYIGCHGAELEPILESGVVKWRVRRR”, for which the protein production result is reported as “failed”.
As for “MVSTLGSDTFTSISAHDLHGKLGNIHLIDVRENDDFKEGHIPTSRNIPMDILLKEPEKYINKTDEYYIVCQAGVKSEKTCKELWSKGYKVINIKDGTDSYKQPLEHHHHHH”, the protein production result is listed as “failed”.
Turning to “MVSTVRTVLGDVLPEHLGVCDAHDHLFFGSPQLPGQELRDASAARAELAAFREQGGGSVVQWTPYGLGRRAADLPLLSRDTGVHVVAATGLHQAVHYDAGTLAELRGRLADTFVAELTTGIGPSGVRAGLIKVAGGFHALDAHARWTMTAAAEAHHATGAPIAVHLELGTGALDVLDLLCGESGVPPHRVILGHLNRSPDFTVHRQAAEAGAFLAFDGPSRANHATDWRMPDALRALAEAGFGHRLLLGGDTTTAAARSVNGGPGLPYLLRRLRPRLEQALGKDLVGRIFTENPGRAFGVEWR”, the protein production entry is on record as “failed”.
As for “MVSVGGDSVADSTVNQAKQSIRRSESITMERIVSFTLEEVPESIAKLEDKLFSYLLDLEGLASGRQRQTMSGEVGFGVLKAIDDQTIQDRLHW”, the entry is “failed”; as for “MVSVSVVIATLKPRDEIEAIQCLEDQTFDDFEVIVCDKSPVTRARNEGIRQSSSDKIVFLDDDSRPQPGYLEKANDVLETEAAYAGRTIHPVDDVFARHFTAHYDWGGDPCYVDHFWGCNMGVHRDVFKTVGGWDEEMGWGHEEKELARRVRSEFDIRYDPELVVDHPYASSITDYWKKQYKLETKSPYYWSKCNVSRADQLKNIFCETFDPLNYVRITPVATMIEAGSTVAKTAGRLRGFLDHTHHEEGRGGVPDIDRPSQSPERSGLEHHHHHH”, “failed”.
As for “MVSWHPSVYLAQRTSKAAKNILAAPPLILSISFIFLILIGTLILKLPISTTVPVTWSQSLFNATSAVTVTGLVVFDVGTVYTTFGQVVIALLIQLGGLGIMTFAIVTLLALGAKIGFLQNTIAKEAYNSTNTATLVTTAKSVLIFSLCVELIGMIILAVSWSDELGWRTSLFHGFFYTISAFNNAGIGLSPDSLMPYVEDPIINLTITALFIIGGLGFTVWIDLWRKKRWDKLTTYSKMMIIGTISINAIAVLAIYCIEYNNPKTLVPLSETGKWLASWFQAVTPRTAGFNTLAMNELEDATTAIMLMLMFIGGGSLSTASGIKVVTFMVLILATYGYLRRYDFVYVYHRGISKDTISKALALAMISVGTIWASIFFLLLSENASMIDIIFEAVSAFGTVGLSRGLTSNLTVTGQFIIIFLMFMGRLGPLTLAYFLASPKSKRIRYPETKLTIG”, the entry is “failed”; as for “MVSYKILSVANKLKNIRDKYGLSQEDLAGNEITRNLISQIEHNKANLTRSAAEIMLKNLKKICDKKNVQVDEDINYLMEDEKSQAIKVLDKYIDDLRDLTIYKDNVFINKLREVEDFLVTWDFRDKKITIFELAGDYFSSTNDFYNASLYYEKAKALIDINIYSDNIVHILRKLSMTYYYMLRYQDDINCCEFALKQFKNMDEEYRCIFLFNSSLCYGQLKKYDLALKRLNEVESIIKNIDQNKYYEVLIQKAICYQWMKEYQKSLDIYNKLLESIDKSDYEKYLFILVNSSDIYVENSNFEKAESNLRIILENINNLNESSTLLPSTYLEMSRILKKLGYTKDAELYCLKSLNYAKRNTHYYLVNDIYGELLDIYKTLNVPEKVQTIKDEFFSNSSRDKNLNSKLMFKLLDFYFATNDIHSIKEIYDFSKNFIQERMINLCY”, “failed”; as for “MVTDKSKKAKTEEENVEQIDAELVLSIEKLQEIQDDLEKINEKASDEVLEVEQKYNVIRKPVYDKRNEIIKTIPDFWLTAFLSHPALGELLTEEDQKIFKYLSSLDVEDAKDVKSGYSITFSFNPNPFFEDGKLTKTFTFLEEGTTKITATPIKWKEGKGLANGVNHEKNGNKRALPEESFFTWFSDAQHKEDVEDEMQDEVADIIKEDLWPNPLTYFNNDADEEDFDGDDDGDEEEKEGDSDEDDDEEDEVGEE”, “failed”.
As for “MVTGYEALERHRGVRRPRRKLSRREKHAWKKAQKYELKLHKAHEKEERKLAKQAAKQAAREEKAAQKQAKKAERHKKKTKPPGSVKSSGKKGVAKKISSTNKDSRNKGKNITAQQSIPYREMGKDGICRVEDGYYSKTIRFYDINYQLAQNEDKNAIFENWCDFLNYFDSTIHFQLSFINHHSNMTEYEDVIRIKKQNDSFDDLRMEFAQMLRNQLAKGNNGLIRTKYITFGIEADNIREAKPKLERIETDILNNFKVFGVSAYPLNGAERLQIMYETFNQNVKVPFRFSYDDMLRTGLNTKDYIAPSSFLFKNGKDFQMGDTVGAVSYLQILAPELTDKMLAEFLEMDCNLLVNLHIQSIDQMKAIKLVKSKVTDINRMKIEEQKKAVRSGYDMDIIPSDLNTYGGEAKRLLEDLQSRNERMFLVTVVFLNTAKNKQELENVVFQTAGIAQKYNCALKRLDYQQEQGLMSSLPLGRNWIPIKRALTTTSTAIFVPFTTQELFMGGESIYYGLNALSNNLIMADRKKLKNPNGLILGTPGSGKSFAAKREITNVFIVTKDDIIICDPEGEYFPLVRAFNGQVIRISPTSHDYINPMDININYADDDDPLSLKSDFILSLCELVVGGKNGLEPVEKTIIDRCVRLVYQDYLADPVPEKMPILEDLYNLLRKQEEAESQRLATALEIYVNGSLKVFNHRTNVELNNRLVCFDIKDLGKQLKKLGMLIVQDQVWNRVTVNRSAHKSTRYYIDEFHLLLKEEQTAAYSVEIWKRFRKWGGIPTGITQNVKDLLASREIENIFENSDFILMLNQASGDRQILAKQLNISTHQLSYVTNSGEGEGLIFYGNTIIPFKDRFDNTLMLYALMSSKPEDVEKREKLGIKGRDDS”, the entry is “failed”; as for “MVTKEQVVEALEGIVDPFLHKTLKETSAIKEVTVKPEKEHVSVKIAIVKTGTAEQMQLQSGIVKLVKELGAATVGLRFAEFTEEELAQFAPEQEEEQSESLLSPNSKTTFLAVASGKGGVGKSTVSVNLAVALARLGKKVGIIDADIYGFSVPDMMGIEKRPIVRGDKIIPVERLGVKVISMGFFVEDNAPVIWRGPMLGKMLNHFFTEVEWGDLDYLVLDLPPGTGDVALDVHSMLPSCKEIIVTTPHPTAAFVAARAGAMALRTEHSILGVVENMAYFESKVTGEKEYVFGKGGGDKLATELQTNVLGRIPLQQPDWNKEDFAPSVYEDTHTTGIIYSKIAETVIDKTAVTQKLEHHHHHH”, “not failed”.

Values taken from a protein production outcome set (Wang et al. 2014).
